From patent US9931373B2, “Method of reducing cancer cell proliferation by administering recombinant alpha-fetoprotein” (priority 2005, dated 2018) come the findings set out here.

The subject of experiment [1] is syngeneic leukemia cells P388. Description: Syngeneic acute leukemia P388 in BDF1 mice, survival over 30 days. The following applies: rhAFP 25.0 mg/kg. It counts as in vivo. The source says: We have studied the effect of combined treatment with AFP+Dox of acute leukemia in mice BDF1 with transplanted intrapleurally syngeneic P388 leukemia cells. BDF-1 mice (84 male, 28 mice per treatment) were implanted with lethal dose of 12×10^6 syngeneic leukemia cells P388 in the pleural region. Animals were subjected to monotherapy with Dox and combined therapy with rhAFP/Dox upon simultaneous single injection of drugs in various doses. Animal survival was compared over 30 days.

Experiment [2] relates to human hepatoma cells HepG2. As to the kind of experiment: Human hepatoma xenografts in Nude mice, rhAFP monotherapy. Format: in vivo, Balb C/Nude mice. On the procedure: To study tumor-suppression upon monotherapy with rhAFP we used in vivo model of human hepatoma xenografts in Nude mice. Balb C/Nude mice 8/group were implanted with 12×10^6 human hepatoma cells HepG2 s/c. rhAFP 10 mg/kg was injected i/p 9 times each 48 hrs during 16 days. Effectiveness of treatment was assessed by measuring and weighting of the tumor at the 30th day of experiment and by comparison of the quantity of mice with tumor during time of observation.
For orientation: A xenograft is tissue or cells of one species grown in another, often human tumour cells in immunodeficient mice.

The subject of experiment [3] is cells of B-cellular lymphoma Raji. As to the kind of experiment: Suppression of growth of Raji cells in vitro, [H3]-thymidine incorporation. Format: cell-based, human. The following applies: 12 hours with AFP, dose-dependent, FIG. 5. On the procedure: The functional activity of rAFP and the modified forms thereof were determined according to its capability of suppressing the growth of cells of B-cellular lymphoma Raji in the culture in vitro, as earlier described (Semenkova, L. 1997, Tumor Biol. 18, 261-274; Dudich E. I., et al., 1998, Tumor Biol. 198, 30-40). Preliminarily washed by a fresh medium, Raji cells were placed into each cell of a 96-alverolar plate according to 5×10^3 in 0.1 ml of a medium RPMI-1640 in the presence of a 10% fetal calf serum, then different doses of AFP were added for 12 hours. Proliferation of the cells was measured by a standard method by the introduction of [H^3]-thymidine during the last 4 hours of culturing. For comparison, the dose-dependent reactivity was studies for two samples of AFP of embryonal origin embrAFP and yeast rAFP (FIG. 5). […] Similarly, in order to determine the activity to preparations on the base of AFP in vitro, any other lines of cancer cells may be used that are sensitive to the suppressive action of AFP, such as human hepatocarcinoma HepG2, breast cancer MCF-7, prostate cancer LnCap, myeloblastoma U-937 and others (Semenkova, L. 1997, Tumor Biol. 18, 261-274; Dudich E. I., et al., 1998, Tumor Biol. 198, 30-40).
On the technique in general: Incorporation of labelled thymidine or its analogues reports DNA synthesis.

Experiment [4] concerns PHA-activated CBA thymocytes. Description: PHA-mediated thymocyte proliferation in vitro. It counts as cell-based, mouse CBA. The conditions noted are these: AFP alone, 24 hrs after 48 hrs PHA 1.5 μg/ml.
Experiment [5] relates to resting mouse T-cells. Description: Control resting splenocytes / resting T-cells treated with rhAFP/CsA. It counts as cell-based, mouse (CBA). On the procedure: Control resting splenocytes CBA were treated for the same time with combination of rhAFP/CysA (FIG. 10C). Cytostatic effects were assessed by monitoring of cell proliferation by [^3H]-thymidine incorporation.

B1: rhAFP: recombinant human alpha-fetoprotein secreted by yeast Saccharomyces cerevisiae YBS723/pKX, glycosylated, mature human AFP sequence SEQ ID NO:2 (protein, listed as Homo sapiens)
chain: TLHRNEYGIASILDSYQCTAEISLADLATIFFAQFVQEATYKEVSKMVKDALTAIEKPTGDEQSSGCLENQLPAFLEELCHEKEILEKYGHSDCCSQSEEGRHNCFLAHKKPTPASIPLFQVPEPVTSCEAYEEDRETFMNKFIYEIARRHPFLYAPTILLWAARYDKIIPSCCKAENAVECFQTKAATVTKELRESSLLNQHACAVMKNFGTRTFQAITVTKLSQKFTKVNFTEIQKLVLDVAHVHEHCCRGDVLDCLQDGEKIMSYICSQQDTLSNKITECCKLTTLERGQCIIHAENDEKPEGLSPNLNRFLGDRDFNQFSSGEKNIFLASFVHEYSRRHPQLAVSVILRVAKGYQELLEKCFQTENPLECQDKGEEELQKYIQESQALAKRSCGLFQKLGEYYLQNAFLVAYTKKAPQLTSSELMAITRKMAATAATCCQLSEDKLLACGEGAADIIIGHLCIRHEMTPVNPGVGQCCTSSYANRRPCFSSLVVDETYVPPAFSDDKFIFHKDLCQAQGVALQTMKQEFLINLVKQKPQITEEQLEAVIADFSGLLEKCCQGQEQEVCFAEEGQKLISKTRAALGV
modifications: yeast glycosylation
As for B1, in experiment [1], the “Survival more 30 days” value stood at 0 and the T/C % turned out to be 118%. Moreover, in experiment [1] (single injection), the “T (survival, days)” value was “[15.7/21.8] 7.7 [6.4/ days”. Further, the “tumor growth in the period of treatment” value in experiment [2] (rhAFP 10 mg/kg i/p 9 times each 48 hrs during 16 days) is “tumors did not grow in the period of treatment”. Further, the “inhibition of total tumor weight relatively to untreated control” value in experiment [2] (rhAFP 10 mg/kg i/p 9 times each 48 hrs, tumor weighed at 30th day) came to 90%. Moreover, the “cytostatic activity, inhibition of growth of Raji cells” value in experiment [3] is listed as “expressed cytostatic activity”. The “proliferation of PHA-stimulated thymocytes in response to AFP” value in experiment [4] was “distinct dose-dependent growth suppression”. Also, in experiment [5] (AFP as modulator of CsA-mediated signals), the “suppression of resting immune cells” value is recorded as “does not suppress resting immune cells”. Also, in experiment [5] (FIG. 10C), the “effect of rhAFP on CsA treatment of resting mouse T-cells” value is recorded as “cancellation of the cytotoxic effects of CsA treatment”.
